Test results published in US20250388669A1 (published 2025).

T1: CD19 (UniProt P15391 20-556, limits assumed)
T1 construct: whole, on cells
T1 sequence (looked up): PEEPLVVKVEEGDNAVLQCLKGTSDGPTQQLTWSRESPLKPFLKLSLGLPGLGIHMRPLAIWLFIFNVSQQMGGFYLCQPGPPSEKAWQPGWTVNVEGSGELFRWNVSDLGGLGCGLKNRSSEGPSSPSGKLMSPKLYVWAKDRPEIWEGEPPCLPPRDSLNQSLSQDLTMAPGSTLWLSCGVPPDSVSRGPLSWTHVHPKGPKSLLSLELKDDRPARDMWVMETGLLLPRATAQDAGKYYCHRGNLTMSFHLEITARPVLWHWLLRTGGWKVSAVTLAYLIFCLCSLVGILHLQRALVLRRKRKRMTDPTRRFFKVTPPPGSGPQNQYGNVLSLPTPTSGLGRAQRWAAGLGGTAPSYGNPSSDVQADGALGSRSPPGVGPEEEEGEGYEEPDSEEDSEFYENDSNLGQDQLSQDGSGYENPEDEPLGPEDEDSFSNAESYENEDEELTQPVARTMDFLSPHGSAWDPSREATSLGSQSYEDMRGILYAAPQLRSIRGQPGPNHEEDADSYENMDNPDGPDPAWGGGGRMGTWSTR


Assays:
CD137 = biological target: T2, CD137 (human, UniProt Q07011 24-186); assay: CD137 binding (method not given)
T2 construct: In the reporter assay it is whole, on GS-H2-huCD137 cells; also called 4-1BB; huCD137

CD40 = biological target: T3, CD40 (human, UniProt P25942 21-193); assay: CD40 binding (method not given)
T3 construct: In the reporter assay it is whole, on GS-H2-huCD40 cells; also called huCD40

CD19 = biological target: T1, CD19; assay: FCM or ELISA (graded summary table)

T3 sequence (P25942 21-193 limits assumed): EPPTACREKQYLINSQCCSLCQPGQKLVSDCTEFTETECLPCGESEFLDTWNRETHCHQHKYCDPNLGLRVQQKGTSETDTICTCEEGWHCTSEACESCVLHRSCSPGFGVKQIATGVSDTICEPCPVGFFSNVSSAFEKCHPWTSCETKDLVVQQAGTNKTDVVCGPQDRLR

Binder	EC50 (CD137) [µg/mL]	EC50 (CD40) [µg/mL]	also measured
Ly2118 (other, Tri-specific antibody: B7H3 Fabs, central CD137 Fv, terminal PD-1 Fv) chain 1: QVQLVQSGAEVKKPGASVKVSCKASGYTFTSYVMHWVRQKPGQGLEWIGYINPYNEGTESTDKFKGRATMTSDKSTSTVYMELSSLRSEDTAVYYCASIYYGYEGTYFGVWGQGTLVTVSSASTKGPSVFPLAPSSKSTSGGTAALGCLVKDYFPEPVTVSWNSGALTSGVHTFPAVLQSSGLYSLSSVVTVPSSSLGTQTYICNVNHKPSNTKVDKKVEPKSCGGGGSGGGGSGGGGSGGGGSQVQLVQSGAEVKKPGASVKVSCKASGYTFAGFEMHWVRQAPGQGLEWMGAIDPKTGGTDYNQKFKDRVTMTRDTSISTAYMELSRLRSDDTAVYYCARDLGYFDVWGQGTLVTVSSGGGGSDKTHTCPPCPAPEAAGPSVFLFPPKPKDTLMISRTPEVTCVVVDVSHEDPEVKFNWYVDGVEVHNAKTKPREEQYNSTYRVVSVLTVLHQDWLNGKEYKCKVSNKALPAPIEKTISKAKGQPREPQVYTLPPSREEMTKNQVSLWCLVKGFYPSDIAVEWESNGQPENNYKTTPPVLDSDGSFFLYSKLTVDKSRWQQGNVFSCSVMHEALHNHYTQKSLSLSPGGGGGSGGGGSGGGGSGGGGSQVTLKESGPALVKPTQTLTLTCTFSGFSLSTSGTCVSWIRQPPGKALEWLATICWEDSKGYNPSLKSRLTISKDTSKNQAVLTMTNMDPVDTATYYCARREDSGYFWFPYWGQGTLVTVSS chain 2: QVQLVQSGAEVKKPGASVKVSCKASGYTFTSYVMHWVRQKPGQGLEWIGYINPYNEGTESTDKFKGRATMTSDKSTSTVYMELSSLRSEDTAVYYCASIYYGYEGTYFGVWGQGTLVTVSSASTKGPSVFPLAPSSKSTSGGTAALGCLVKDYFPEPVTVSWNSGALTSGVHTFPAVLQSSGLYSLSSVVTVPSSSLGTQTYICNVNHKPSNTKVDKKVEPKSCGGGGSGGGGSGGGGSGGGGSDIQMTQSPSSLSASVGDRVTITCRASQDIRSNLNWYQQKPGGAVKLLIYYTSRLHSGVPSRFSGSGSGTDYTLTISSLQPEDFATYFCQQSEKLPRTFGGGTKVEIRGGGGSDKTHTCPPCPAPEAAGPSVFLFPPKPKDTLMISRTPEVTCVVVDVSHEDPEVKFNWYVDGVEVHNAKTKPREEQYNSTYRVVSVLTVLHQDWLNGKEYKCKVSNKALPAPIEKTISKAKGQPREPQVYTLPPSREEMTKNQVSLSCAVKGFYPSDIAVEWESNGQPENNYKTTPPVLDSDGSFFLVSKLTVDKSRWQQGNVFSCSVMHEALHNRFTQKSLSLSPGGGGGSGGGGSGGGGSGGGGSNIQMTQSPSSLSASVGDRVTITCKAGQNVNNYLAWYQQKPGKAPKVLIFNANSLQTGVPSRFSGSGSGTDFTLTISSLQPEDFATYYCQQYNSWPTFGGGTKVEIK light: EIVLTQSPATLSLSPGERATLSCRASSSVSYMHWYQQKPGQAPRPWIYATSNLASGIPARFSGSRSGTDYTLTISSLEPEDFAVYYCQQWSSNTLTFGGGTKVEIKRTVAAPSVFIFPPSDEQLKSGTASVVCLLNNFYPREAKVQWKVDNALQSGNSQESVTEQDSKDSTYSLSSTLTLSKADYEKHKVYACEVTHQGLSSPVTKSFNRGEC	1.78	–	–
Ly2279 (bispecific antibody, B7H3 Fabs, central CD40 Fv) chain 1: not shown chain 2: QVQLVQSGAEVKKPGASVKVSCKASGYTFTSYVMHWVRQKPGQGLEWIGYINPYNEGTESTDKFKGRATMTSDKSTSTVYMELSSLRSEDTAVYYCASIYYGYEGTYFGVWGQGTLVTVSSASTKGPSVFPLAPSSKSTSGGTAALGCLVKDYFPEPVTVSWNSGALTSGVHTFPAVLQSSGLYSLSSVVTVPSSSLGTQTYICNVNHKPSNTKVDKKVEPKSCGGGGSGGGGSGGGGSGGGGSDIQMTQSPSSVSASVGDRVTITCRASQGIYSWLAWYQQKPGKAPNLLIYTASTLQSGVPSRFSGSGSGTDFTLTISSLQPEDFATYYCQQANIFPLTFGGGTKVEIKGGGGSDKTHTCPPCPAPEAAGPSVFLFPPKPKDTLMISRTPEVTCVVVDVSHEDPEVKFNWYVDGVEVHNAKTKPREEQYNSTYRVVSVLTVLHQDWLNGKEYKCKVSNKALPAPIEKTISKAKGQPREPQVYTLPPSREEMTKNQVSLSCAVKGFYPSDIAVEWESNGQPENNYKTTPPVLDSDGSFFLVSKLTVDKSRWQQGNVFSCSVMHEALHNRFTQKSLSLSPG light: EIVLTQSPATLSLSPGERATLSCRASSSVSYMHWYQQKPGQAPRPWIYATSNLASGIPARFSGSRSGTDYTLTISSLEPEDFAVYYCQQWSSNTLTFGGGTKVEIKRTVAAPSVFIFPPSDEQLKSGTASVVCLLNNFYPREAKVQWKVDNALQSGNSQESVTEQDSKDSTYSLSSTLTLSKADYEKHKVYACEVTHQGLSSPVTKSFNRGEC	–	1.49	–
TM383 (antibody, V domains shown, Parent mAb; also called Anti-CD40 TM383; parent CD40 mAb) VH: not shown VL: DIQMTQSPSSVSASVGDRVTITCRASQGIYSWLAWYQQKPGKAPNLLIYTASTLQSGVPSRFSGSGSGTDFTLTISSLQPEDFATYYCQQANIFPLTFGGGTKVEIK	–	0.48	–
Ly2281 (bispecific antibody, PD-1 Fabs, central CD137 Fv) chain 1: QVTLKESGPALVKPTQTLTLTCTFSGFSLSTSGTCVSWIRQPPGKALEWLATICWEDSKGYNPSLKSRLTISKDTSKNQAVLTMTNMDPVDTATYYCARREDSGYFWFPYWGQGTLVTVSSASTKGPSVFPLAPSSKSTSGGTAALGCLVKDYFPEPVTVSWNSGALTSGVHTFPAVLQSSGLYSLSSVVTVPSSSLGTQTYICNVNHKPSNTKVDKKVEPKSCGGGGSGGGGSGGGGSGGGGSQVQLVQSGAEVKKPGASVKVSCKASGYTFAGFEMHWVRQAPGQGLEWMGAIDPKTGGTDYNQKFKDRVTMTRDTSISTAYMELSRLRSDDTAVYYCARDLGYFDVWGQGTLVTVSSGGGGSDKTHTCPPCPAPEAAGPSVFLFPPKPKDTLMISRTPEVTCVVVDVSHEDPEVKFNWYVDGVEVHNAKTKPREEQYNSTYRVVSVLTVLHQDWLNGKEYKCKVSNKALPAPIEKTISKAKGQPREPQVYTLPPSREEMTKNQVSLWCLVKGFYPSDIAVEWESNGQPENNYKTTPPVLDSDGSFFLYSKLTVDKSRWQQGNVFSCSVMHEALHNHYTQKSLSLSPG chain 2: QVTLKESGPALVKPTQTLTLTCTFSGFSLSTSGTCVSWIRQPPGKALEWLATICWEDSKGYNPSLKSRLTISKDTSKNQAVLTMTNMDPVDTATYYCARREDSGYFWFPYWGQGTLVTVSSASTKGPSVFPLAPSSKSTSGGTAALGCLVKDYFPEPVTVSWNSGALTSGVHTFPAVLQSSGLYSLSSVVTVPSSSLGTQTYICNVNHKPSNTKVDKKVEPKSCGGGGSGGGGSGGGGSGGGGSDIQMTQSPSSLSASVGDRVTITCRASQDIRSNLNWYQQKPGGAVKLLIYYTSRLHSGVPSRFSGSGSGTDYTLTISSLQPEDFATYFCQQSEKLPRTFGGGTKVEIRGGGGSDKTHTCPPCPAPEAAGPSVFLFPPKPKDTLMISRTPEVTCVVVDVSHEDPEVKFNWYVDGVEVHNAKTKPREEQYNSTYRVVSVLTVLHQDWLNGKEYKCKVSNKALPAPIEKTISKAKGQPREPQVYTLPPSREEMTKNQVSLSCAVKGFYPSDIAVEWESNGQPENNYKTTPPVLDSDGSFFLVSKLTVDKSRWQQGNVFSCSVMHEALHNRFTQKSLSLSPG light: NIQMTQSPSSLSASVGDRVTITCKAGQNVNNYLAWYQQKPGKAPKVLIFNANSLQTGVPSRFSGSGSGTDFTLTISSLQPEDFATYYCQQYNSWPTFGGGTKVEIKRTVAAPSVFIFPPSDEQLKSGTASVVCLLNNFYPREAKVQWKVDNALQSGNSQESVTEQDSKDSTYSLSSTLTLSKADYEKHKVYACEVTHQGLSSPVTKSFNRGEC	2.56	–	–
Ly2280 (bispecific antibody, PD-1 Fabs, central CD40 Fv) chain 1: not shown chain 2: QVTLKESGPALVKPTQTLTLTCTFSGFSLSTSGTCVSWIRQPPGKALEWLATICWEDSKGYNPSLKSRLTISKDTSKNQAVLTMTNMDPVDTATYYCARREDSGYFWFPYWGQGTLVTVSSASTKGPSVFPLAPSSKSTSGGTAALGCLVKDYFPEPVTVSWNSGALTSGVHTFPAVLQSSGLYSLSSVVTVPSSSLGTQTYICNVNHKPSNTKVDKKVEPKSCGGGGSGGGGSGGGGSGGGGSDIQMTQSPSSVSASVGDRVTITCRASQGIYSWLAWYQQKPGKAPNLLIYTASTLQSGVPSRFSGSGSGTDFTLTISSLQPEDFATYYCQQANIFPLTFGGGTKVEIKGGGGSDKTHTCPPCPAPEAAGPSVFLFPPKPKDTLMISRTPEVTCVVVDVSHEDPEVKFNWYVDGVEVHNAKTKPREEQYNSTYRVVSVLTVLHQDWLNGKEYKCKVSNKALPAPIEKTISKAKGQPREPQVYTLPPSREEMTKNQVSLSCAVKGFYPSDIAVEWESNGQPENNYKTTPPVLDSDGSFFLVSKLTVDKSRWQQGNVFSCSVMHEALHNRFTQKSLSLSPG light: NIQMTQSPSSLSASVGDRVTITCKAGQNVNNYLAWYQQKPGKAPKVLIFNANSLQTGVPSRFSGSGSGTDFTLTISSLQPEDFATYYCQQYNSWPTFGGGTKVEIKRTVAAPSVFIFPPSDEQLKSGTASVVCLLNNFYPREAKVQWKVDNALQSGNSQESVTEQDSKDSTYSLSSTLTLSKADYEKHKVYACEVTHQGLSSPVTKSFNRGEC	–	3.17	–
Ly238 (antibody, V domains shown, Parent mAb; also called Anti-CD19 Ly238; parent anti-CD19 mAb) VH: QVQLQQSGAELVRPGSSVKISCKASGYAFSSYWMNWVKQRPGQGLEWIGQIWPGDGDTNYNGKFKGKATLTADESSSTAYMQLSSLASEDSAVYFCARRETTTVGRYYYAMDYWGQGTTVTVSS VL: DIQLTQSPASLAVSLGQRATISCKASQSVDYDGDSYLNWYQQIPGQPPKLLIYDASNLVSGIPPRFSGSGSGTDFTLNIHPVEKVDAATYHCQQSTEDPWTFGGGTKLEIK	–	–	binding result (CD19): binds
